Tests used:
[1] = system: histamine-dependent itch in mice; experiment: Histamine-induced itch in mice; assay type: in vivo, mouse; conditions: i.v. cilengitide 100 nM 10 minutes prior to histamine 100 μg/10 μl
Experimental: (§1) All behavioral experiments were conducted during the light cycle at ambient temperature (23° C.). Behavioral assessment of scratching behavior was conducted as described previously (Mishra et al., 2011). Briefly, mice were injected intradermal into the nape of the neck with periostin (R&D), histamine, and chloroquine (all Millipore-Sigma) as previously described (Shimada and LaMotte, 2008). Compounds were diluted in PBS and the same was used as a vehicle. […] Additionally, cilengitide and periostin were combined together (mix) and injected i.d. into the dorsal neck of mouse. Scratching behavior was recorded for 30 minutes and data was presented in bouts per 30 minutes for mice. […] For eye wipes assay, periostin and capsaicin were dropped on mouse cornea and counted wipes for 1-minute. […] For dog's study, periostin (25 μg/25 μl) was injected in the dorsal neck (s.c.) and behavior was recorded and quantified for 30 minutes as “duration of pruritus manifestation” (DPM), as described earlier (Paps et al., 2016). […] When different raters separately scored a single tape, the ratings indicated high interrater reliability (coefficient of correlation, r>0.95). This method of itch readout in NHP has been used and accepted (Ko and Naughton, 2000). The behavior was recorded for 30 minutes duration and number of scratches quantified. […]

C57BL6J mice = experiment: Mouse cheek itch/pain model; assay type: in vivo; conditions: periostin 5 μg/20 μl into the cheek
Experimental: as §1

mouse cornea = experiment: Eye wipes assay (corneal application); assay type: in vivo; conditions: wild-type mice, wiping measured for 1 minute
Experimental: as §1

For `CC(C)[C@H]1C(=O)N[C@@H](CCCN=C(N)N)C(=O)NCC(=O)N[C@@H](CC(=O)O)C(=O)N[C@H](Cc2ccccc2)C(=O)N1C` [cilengitide, cyclo RGDf-n(Me)V], the “histamine-induced itch (scratching bouts per 30 minutes)” value [1] was “inhibits”.

B1: periostin: fasciclin extracellular matrix protein, endogenous ligand of integrin αvβ3; mouse recombinant used (protein)
chain: NSYYDKVLAHSRIRGRDQGPNVCALQQILGTKKKYFSSCKNWYQGAICGKKTTVLYECCPGYMRMEGMKGCPAVMPIDHVYGTLGIVGATTTQHYSDVSKLREEIEGKGSYTYFAPSNEAWENLDSDIRRGLENNVNVELLNALHSHMVNKRMLTKDLKHGMVIPSMYNNLGLFINHYPNGVVTVNCARVIHGNQIATNGVVHVIDRVLTQIGTSIQDFLEAEDDLSSFRAAAITSDLLESLGRDGHFTLFAPTNEAFEKLPRGVLERIMGDKVASEALMKYHILNTLQCSEAITGGAVFETMEGNTIEIGCEGDSISINGIKMVNKKDIVTKNGVIHLIDEVLIPDSAKQVIELAGKQQTTFTDLVAQLGLASSLKPDGEYTLLAPVNNAFSDDTLSMDQRLLKLILQNHILKVKVGLSDLYNGQILETIGGKQLRVFVYRTAICIENSCMVRGSKQGRNGAIHIFREIIQPAEKSLHDKLRQDKRFSIFLSLLEAADLKDLLTQPGDWTLFAPTNDAFKGMTSEERELLIGDKNALQNIILYHLTPGVYIGKGFEPGVTNILKTTQGSKIYLKGVNETLLVNELKSKESDIMTTNGVIHVVDKLLYPADIPVGNDQLLELLNKLIKYIQIKFVRGSTFKEIPMTVYRPAMTKIQIEGDPDFRLIKEGETVTEVIHGEPVIKKYTKIIDGVPVEITEKQTREERIITGPEIKYTRISTGGGETGETLQKFLQKEVSKVTKFIEGGDGHLFEDEEIKRLLQGDTPAKKIPANKRVQGPRRRSREGRSQ
For B1, the “scratching behavior, cheek injection” value (C57BL6J mice) was “robust scratching behavior similar to that of histamine”, the “wiping (pain behavior), cheek injection” value (C57BL6J mice; compared to capsaicin) was “did not induce wiping” and the “eye-wiping response to ocular application” value (mouse cornea) was “No eye-wiping response”.
